This experiment concerns the target endogenous TEA domain protein (TEAD), detected with a pan-TEAD antibody, P28347. Kind of experiment: co-immunoprecipitation (α-Flag) with western blot quantification. As to conditions: chain shown with the change; lysates of transiently transfected HeLa cells; n = 3; parent: est. 1.0; read off a plot. (In general: Immunoblotting shows a protein as a band on a membrane.)

endogenous TEA domain protein (TEAD), detected with a pan-TEAD antibody, P28347, sequence (P28347 whole entry, the tested form may be a part): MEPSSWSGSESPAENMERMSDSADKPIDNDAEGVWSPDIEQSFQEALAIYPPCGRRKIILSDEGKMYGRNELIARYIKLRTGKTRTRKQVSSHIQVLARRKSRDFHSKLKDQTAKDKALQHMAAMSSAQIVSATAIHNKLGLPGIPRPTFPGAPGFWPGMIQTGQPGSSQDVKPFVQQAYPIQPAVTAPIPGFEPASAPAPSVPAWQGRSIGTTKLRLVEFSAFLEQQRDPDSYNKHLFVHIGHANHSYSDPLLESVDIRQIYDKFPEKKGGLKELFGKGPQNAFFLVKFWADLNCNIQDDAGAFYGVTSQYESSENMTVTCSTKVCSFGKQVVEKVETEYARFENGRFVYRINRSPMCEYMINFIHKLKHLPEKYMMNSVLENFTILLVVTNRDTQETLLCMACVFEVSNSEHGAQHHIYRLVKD

B1: Flag-tagged wild-type GBP-1 fragment α7–13 (residues 311–582), P32455 K397A; Q398A; N399A; Q400A; E401A; S403A (protein)
chain: CMENAVLALAQIENSAAVQKAIAHYEQQMGQKVQLPTETLQELLDLHRDSEREAIEVFIRSSFKDVDHLFQKELAAQLEKKRDDFCAAAAAAASDRCSALLQVIFSPLEEEVKAGIYSKPGGYRLFVQKLQDLKKKYYEEPRKGIQAEEILQTYLKSKESMTDAILQTDQTLTEKEKEIEVERVKAESAQASAKMLQEMQRKNEQMMEQKERSYQEHLKQLTEKMENDRVQLLKEQERTLALKLQEQEQLLKEGFQKESRIMKNEIQDLQTK
In the case of B1, the ratio to parent stood at 1.7.

B2: Flag-tagged wild-type GBP-1 fragment α7–13 (residues 311–582), P32455 L411A; Q412A; V413A; I414A; F415A; S416A; P417A (protein)
chain: CMENAVLALAQIENSAAVQKAIAHYEQQMGQKVQLPTETLQELLDLHRDSEREAIEVFIRSSFKDVDHLFQKELAAQLEKKRDDFCKQNQEASSDRCSALAAAAAAALEEEVKAGIYSKPGGYRLFVQKLQDLKKKYYEEPRKGIQAEEILQTYLKSKESMTDAILQTDQTLTEKEKEIEVERVKAESAQASAKMLQEMQRKNEQMMEQKERSYQEHLKQLTEKMENDRVQLLKEQERTLALKLQEQEQLLKEGFQKESRIMKNEIQDLQTK
Take B2: the ratio to parent was found to be 1.2.

B3: Flag-tagged wild-type GBP-1 fragment α7–13 (residues 311–582), P32455 L418A; E419A; E420A; E421A; V422A; K423A (protein)
chain: CMENAVLALAQIENSAAVQKAIAHYEQQMGQKVQLPTETLQELLDLHRDSEREAIEVFIRSSFKDVDHLFQKELAAQLEKKRDDFCKQNQEASSDRCSALLQVIFSPAAAAAAAGIYSKPGGYRLFVQKLQDLKKKYYEEPRKGIQAEEILQTYLKSKESMTDAILQTDQTLTEKEKEIEVERVKAESAQASAKMLQEMQRKNEQMMEQKERSYQEHLKQLTEKMENDRVQLLKEQERTLALKLQEQEQLLKEGFQKESRIMKNEIQDLQTK
With B3, the ratio to parent is 0.95.

B4: Flag-tagged wild-type GBP-1 fragment α7–13 (residues 311–582), P32455 S404A; D405A; R406A; C407A; S408A; L410A (protein)
chain: CMENAVLALAQIENSAAVQKAIAHYEQQMGQKVQLPTETLQELLDLHRDSEREAIEVFIRSSFKDVDHLFQKELAAQLEKKRDDFCKQNQEASAAAAAAALQVIFSPLEEEVKAGIYSKPGGYRLFVQKLQDLKKKYYEEPRKGIQAEEILQTYLKSKESMTDAILQTDQTLTEKEKEIEVERVKAESAQASAKMLQEMQRKNEQMMEQKERSYQEHLKQLTEKMENDRVQLLKEQERTLALKLQEQEQLLKEGFQKESRIMKNEIQDLQTK
Regarding B4, the ratio to parent worked out at 1.1.

B5: Flag-tagged wild-type GBP-1 fragment α7–13 (residues 311–582), P32455 V376A; D377A; H378A; L379A; F380A; Q381A; K382A (protein)
chain: CMENAVLALAQIENSAAVQKAIAHYEQQMGQKVQLPTETLQELLDLHRDSEREAIEVFIRSSFKDAAAAAAAELAAQLEKKRDDFCKQNQEASSDRCSALLQVIFSPLEEEVKAGIYSKPGGYRLFVQKLQDLKKKYYEEPRKGIQAEEILQTYLKSKESMTDAILQTDQTLTEKEKEIEVERVKAESAQASAKMLQEMQRKNEQMMEQKERSYQEHLKQLTEKMENDRVQLLKEQERTLALKLQEQEQLLKEGFQKESRIMKNEIQDLQTK
On to B5, for which the ratio to parent amounted to 0.37.

B6: Flag-tagged wild-type GBP-1 fragment α7–13 (residues 311–582), P32455 E383A; L384A; Q387A; L388A; E389A (protein)
chain: CMENAVLALAQIENSAAVQKAIAHYEQQMGQKVQLPTETLQELLDLHRDSEREAIEVFIRSSFKDVDHLFQKAAAAAAAKKRDDFCKQNQEASSDRCSALLQVIFSPLEEEVKAGIYSKPGGYRLFVQKLQDLKKKYYEEPRKGIQAEEILQTYLKSKESMTDAILQTDQTLTEKEKEIEVERVKAESAQASAKMLQEMQRKNEQMMEQKERSYQEHLKQLTEKMENDRVQLLKEQERTLALKLQEQEQLLKEGFQKESRIMKNEIQDLQTK
As for B6, the ratio to parent is 1.6.

B7: Flag-tagged wild-type GBP-1 fragment α7–13 (residues 311–582), P32455 K390A; K391A; R392A; D393A; D394A; F395A; C396A (protein)
chain: CMENAVLALAQIENSAAVQKAIAHYEQQMGQKVQLPTETLQELLDLHRDSEREAIEVFIRSSFKDVDHLFQKELAAQLEAAAAAAAKQNQEASSDRCSALLQVIFSPLEEEVKAGIYSKPGGYRLFVQKLQDLKKKYYEEPRKGIQAEEILQTYLKSKESMTDAILQTDQTLTEKEKEIEVERVKAESAQASAKMLQEMQRKNEQMMEQKERSYQEHLKQLTEKMENDRVQLLKEQERTLALKLQEQEQLLKEGFQKESRIMKNEIQDLQTK
On to B7, for which the ratio to parent is 1.6.
